# B1: Cytochrome c-551, P00099 (parent)
# chain: MKPYALLSLLATGTLLAQGAWAEDPEVLFKNKGCVACHAIDTKMVGPAYKDVAAKFAGQAGAEAELAQRIKNGSQGVWGPIPMPPNAVSDDEAQTLAKWVLSQK
# Variants of: B1
# Settings: Pseudomonas aeruginosa (strain ATCC 15692 / DSM 22644 / CIP 104116 / JCM 14847 / LMG 12228 / 1C / PRS 101 / PAO1); pH 7; 10 °C; Urea; Fluorescence; sodium phosphate 50 mM; reversible: yes; structure 451C; whole UniProt chain shown
variant,measurement,value
MKPYALLSLLATGTLLAQGAWAEDPEVLFKNKGCVACHAIDTKMVGPAYKDVAAKFAGQAGAEAELAQRIKNGSQGVWGPIPMPPNAVSDDQAQTLAKWVLSQK [E92Q],ddG of mutation (higher = less stable),0.9 kcal/mol
same,denaturant m value,1.1 kcal/mol/M
same,denaturant midpoint (higher = more stable),5.7 M
same,unfolding free energy,6.2 kcal/mol
MKPYALLSLLATGTLLAQGAWAEDPEVLFKNKGCVACHAIDTKMVGPAYKDVAAKFAGQAGAEAELAQRIKNGSQGVWGPIPMPPNAVSDDEAQTLAKFVLSQK [W99F],ddG of mutation (higher = less stable),1.2 kcal/mol
same,denaturant m value,1 kcal/mol/M
same,denaturant midpoint (higher = more stable),5.6 M
same,unfolding free energy,5.9 kcal/mol
MKPYALLSLLATGTLLAQGAWAEDPEVLFKNKGCVACHAIDTKMVGPAYKDVAAKFAGQAGAEAELAQRIKNGSQGVFGPIPMPPNAVSDDEAQTLAKWVLSQK [W78F],ddG of mutation (higher = less stable),1.9 kcal/mol
same,denaturant m value,1.1 kcal/mol/M
same,denaturant midpoint (higher = more stable),4.6 M
same,unfolding free energy,5.2 kcal/mol
MKPYALLSLLATGTLLAQGAWAEDPEVLFKNKGCVACHAIDTKMVGPAYKDVAAKFAGQAGAEAELAQRIKNGSQGVWGPIPMPPNAVSDDVAQTLAKWVLSQK [E92V],ddG of mutation (higher = less stable),2 kcal/mol
same,denaturant m value,1.2 kcal/mol/M
same,denaturant midpoint (higher = more stable),4.3 M
same,unfolding free energy,5.1 kcal/mol
